# Laboratory results as given in the MegaScale stability set (Tsuboyama et al. 2023).
# B1: r11_951_TrROS_Hall (parent)
# chain: KKKYVIKVYFEDTGKEVEIEAESKEEALEAAKRLAEELGLKIKKVEIYP
# Variants of: B1
# Assay: folding stability dG (cDNA display proteolysis); higher = more stable
# Conditions: PBS, room temperature
row,Variant,folding stability dG [kcal/mol]
1,KKKYVIKVYFEDTGKEVEIEAENKEEALEAAKRLAEELGLKIKKVEIYP [S23N],4.38
2,KKKYVIKVYFEDTGKEVEIEAEGKEEALEAAKRLAEELGLKIKKVEIYP [S23G],4.06
3,KKKYVIKVYFEDTGKEVEIEAEIKEEALEAAKRLAEELGLKIKKVEIYP [S23I],4
4,KKKYVIKVYFEDTGKEVEIEAEFKEEALEAAKRLAEELGLKIKKVEIYP [S23F],4.26
5,KKKYVIKVYFEDTGKEVEIEAEWKEEALEAAKRLAEELGLKIKKVEIYP [S23W],4.13
6,KKKYVIKVYFEDTGKEVEIEAEAKEEALEAAKRLAEELGLKIKKVEIYP [S23A],4.08
7,KKKYVIKVYFEDTGKEVEIEAECKEEALEAAKRLAEELGLKIKKVEIYP [S23C],4.05
8,KKKYVIKVYFEDTGKEVEIEAELKEEALEAAKRLAEELGLKIKKVEIYP [S23L],4.01
9,KKKYVIKVYFEDTGKEVEIEAETKEEALEAAKRLAEELGLKIKKVEIYP [S23T],4.35
10,KKKYVIKVYFEDTGKEVEIEAERKEEALEAAKRLAEELGLKIKKVEIYP [S23R],4
11,KKKYVIKVYFEDTGKEVEIEAEHKEEALEAAKRLAEELGLKIKKVEIYP [S23H],4.08
12,KKKYVIKVYFEDTGKEVEIEAEEKEEALEAAKRLAEELGLKIKKVEIYP [S23E],4.22
13,KKKYVIKVYFEDTGKEVEIEAEPKEEALEAAKRLAEELGLKIKKVEIYP [S23P],2.12
14,KKKYVIKVYFEDTGKEVEIEAEKKEEALEAAKRLAEELGLKIKKVEIYP [S23K],3.92
15,KKKYVIKVYFEDTGKEVEIEAEDKEEALEAAKRLAEELGLKIKKVEIYP [S23D],4.31
16,KKKYVIKVYFEDTGKEVEIEAEVKEEALEAAKRLAEELGLKIKKVEIYP [S23V],3.91
17,KKKYVIKVYFEDTGKEVEIEAEQKEEALEAAKRLAEELGLKIKKVEIYP [S23Q],3.89
18,KKKYVIKVYFEDTGKEVEIEAEMKEEALEAAKRLAEELGLKIKKVEIYP [S23M],3.83
19,KKKYVIKVYFEDTGKEVEIEAEYKEEALEAAKRLAEELGLKIKKVEIYP [S23Y],3.98
20,KKKYVIKVYFEDTGKEVEIEAESKEEACEAAKRLAEELGLKIKKVEIYP [L28C],4.12
21,KKKYVIKVYFEDTGKEVEIEAESKEEAGEAAKRLAEELGLKIKKVEIYP [L28G],4.17
22,KKKYVIKVYFEDTGKEVEIEAESKEEAAEAAKRLAEELGLKIKKVEIYP [L28A],4.28
23,KKKYVIKVYFEDTGKEVEIEAESKEEAEEAAKRLAEELGLKIKKVEIYP [L28E],4.28
24,KKKYVIKVYFEDTGKEVEIEAESKEEAFEAAKRLAEELGLKIKKVEIYP [L28F],4.31
25,KKKYVIKVYFEDTGKEVEIEAESKEEADEAAKRLAEELGLKIKKVEIYP [L28D],4.11
26,KKKYVIKVYFEDTGKEVEIEAESKEWALEAAKRLAEELGLKIKKVEIYP [E26W],4.92
27,KKKYVIKVYFEDTGKEVEIEAESKELALEAAKRLAEELGLKIKKVEIYP [E26L],4.46

row,Variant,folding stability dG [kcal/mol]
1,KKKYVIKVYFEDTGKEVEIEAESKEPALEAAKRLAEELGLKIKKVEIYP [E26P],3.07
2,KKKYVIKVYFEDTGKEVEIEAESKEQALEAAKRLAEELGLKIKKVEIYP [E26Q],4.36
3,KKKYVIKVYFEDTGKEVEIEAESKEGALEAAKRLAEELGLKIKKVEIYP [E26G],4.58
4,KKKYVIKVYFEDTGKEVEIEAESKEYALEAAKRLAEELGLKIKKVEIYP [E26Y],4.83
5,KKKYVIKVYFEDTGKEVEIEAESKESALEAAKRLAEELGLKIKKVEIYP [E26S],4.39
6,KKKYVIKVYFEDTGKEVEIEAESKEKALEAAKRLAEELGLKIKKVEIYP [E26K],4.24
7,KKKYVIKVYFEDTGKEVEIEAESKEDALEAAKRLAEELGLKIKKVEIYP [E26D],4.32
8,KKKYVIKVYFEDTGKEVEIEAESKENALEAAKRLAEELGLKIKKVEIYP [E26N],4.33
9,KKKYVIKVYFEDTGKEVEIEAESKEMALEAAKRLAEELGLKIKKVEIYP [E26M],4.38
10,KKKYVIKVYFEDTGKEVEIEAESKEAALEAAKRLAEELGLKIKKVEIYP [E26A],4.66
11,KKKYVIKVYFEDTGKEVEIEAESKERALEAAKRLAEELGLKIKKVEIYP [E26R],4.39
12,KKKYVIKVYFEDTGKEVEIEAESKETALEAAKRLAEELGLKIKKVEIYP [E26T],4.28
13,KKKYVIKVYFEDTGKEVEIEAESKEVALEAAKRLAEELGLKIKKVEIYP [E26V],4.24
14,KKKYVIKVYFEDTGKEVEIEAESKEHALEAAKRLAEELGLKIKKVEIYP [E26H],4.5
15,KKKYVIKVYFEDTGKEVEIEAESKEIALEAAKRLAEELGLKIKKVEIYP [E26I],4.22
16,KKKYVIKVYFEDTGKEVEIEAESKEFALEAAKRLAEELGLKIKKVEIYP [E26F],4.83
17,KKKYVIKVYFEDTGKEVEIEAESKECALEAAKRLAEELGLKIKKVEIYP [E26C],4.23
18,KKKYVIKVYFEDTGKEVEIEAYSKEEALEAAKRLAEELGLKIKKVEIYP [E22Y],4.52
19,KKKYVIKVYFEDTGKEVEIEAWSKEEALEAAKRLAEELGLKIKKVEIYP [E22W],4.64
20,KKKYVIKVYFEDTGKEVEIEATSKEEALEAAKRLAEELGLKIKKVEIYP [E22T],4.23
21,KKKYVIKVYFEDTGKEVEIEASSKEEALEAAKRLAEELGLKIKKVEIYP [E22S],4.25
22,KKKYVIKVYFEDTGKEVEIEAVSKEEALEAAKRLAEELGLKIKKVEIYP [E22V],4.29
23,KKKYVIKVYFEDTGKEVEIEAESKREALEAAKRLAEELGLKIKKVEIYP [E25R],4.22
24,KKKYVIKVYFEDTGKEVEIEAESKVEALEAAKRLAEELGLKIKKVEIYP [E25V],4.36
25,KKKYVIKVYFEDTGKEVEIEAESKNEALEAAKRLAEELGLKIKKVEIYP [E25N],4.16
26,KKKYVIKVYFEDTGKEVEIEAESKDEALEAAKRLAEELGLKIKKVEIYP [E25D],4.58
